Measured values: patent publication US20240279335A1, “CD28 SHEDDING BLOCKING AGENTS” (BIOND BIOLOGICS LTD., priority 2021, published 2024)
“And” between values parts separate entries of the source, which are not always exact repeats. Equal entries are not always repeated. Where two headings read alike, the source gives them in different places.

Tests used:
[1] = target: T1, soluble CD28 (sCD28) from SEB stimulated PBMC (Homo sapiens, UniProt P10747); format: cell-based
T1 construct: PBMCs were isolated from fresh blood samples of healthy donors; endogenous in cells; host or cells: human PBMCs from healthy donors, SEB-stimulated

[2] = target: human CD28 on the cell surface (membranal CD28) (human) (UniProt P10747); experiment: flow cytometry on human CD3 cells, 300 nM, anti-human IgG VHH Alexa Fluor 647
[3] = target: human CD28 on the cell surface (membranal CD28) (human) (UniProt P10747); experiment: as above; remark: listed apart in the source
isolated CD3 T cells = experiment: T cell stimulation with HEK/CD80/scOKT3 artificial antigen presenting cells (aAPC-CD80), IL-2 secretion; format: cell-based, human; settings: various concentrations, FIG. 13A-13F, 17A-17F
Description: (§1) Cytokines ELISA—Commercial ELISA kits were used for quantitation of the amount of human interferon-gamma (Biolegend, Cat. No. 430103), human interleukin 2 (Biolegend, Cat. No. 431802) and human CD28 (R&D system, Cat. No. DY342). Cell Proliferation and viability (MTT assay) was conducted to assure validity of results and performed according to manufacturer instructions (Roche, Cat. No. 11465007001).
T cells stimulation with HEK/CD80/scOKT3 artificial antigen presenting cells (aAPC-CD80)—1×10^5 isolated CD3 T cells (from healthy donors) were stimulated with 0.5×10^4 mitomycin treated aAPC-CD80 (HEK293 cells stably transfected with CD80 and scOKT3-CD14 chimera plasmids) for 24-72 hr at 37° C. Treatments of VHH targeting CD28 or controls were added at the indicated concentration in soluble form. When stated, VHH #3C04 (raised against human HER2) was used as an “irrelevant control” and VHH #12B09 was used as a “positive control” for a nanobody with CD28 antagonist effect. Assays were conducted in complete RPMI-1640 media supplemented with 10% FCS and pen/strep mixture.

[4] = target: T2, human CD28-Fc chimera (R&D, Cat. No. 342-CD) (human, UniProt P10747 19-152); experiment: ELISA: serial dilution of the agent on recombinant human CD28-Fc fusion protein, OD read
T2 construct: Bought reagent; also called recombinant human CD28-Fc fusion protein; recombinant CD28 fused to an Fc backbone; Fc part of the bought chimera not given

[5] = tested on: isolated T cells mixed with mature dendritic cells; experiment: Allogeneic mixed lymphocyte reaction (MLR), cytokine secretion; format: cell-based, human; settings: monomeric affinity matured VHHs; especially at high concentrations; FIG. 2
Description: as §1
Dendritic cell differentiation—Monocytes were cultured at a density of 1×10^6/mL in RPMI medium with growth factors that was refreshed at day 3 and at day 6. […] When needed the iDCs were further differentiated into mature dendritic cells by addition of 100 ng/mL LPS (Sigma, Cat. No. L4391) and 20 ng/mL interferon-gamma (R&D systems, Cat. No. 285-IF) for 48 hrs. The generated cell populations were tested for the indicated phenotypes by FACS analysis of relevant markers and by analysis of secretion of characteristic cytokines.
Allogeneic Mixed Lymphocyte Reaction—0.1×10^6 T cells were mixed with […] dendritic cells from different donor for 24-96 hours at 37° C. with/without the indicated concentration of treatments. Assays were conducted in complete RPMI-1640 media supplemented with 10% FCS and pen/strep mixture. […]

CD28-Fc = target: T3, CD28-Fc (Homo sapiens, UniProt P10747); experiment: Biacore multi-cycle kinetics on immobilized CD28-Fc; format: binding; settings: Table 3, monomeric VHH clones; for ka: affinity constants to CD28-Fc
T3 construct: Fc
Description: Biacore—Affinity clones derived from VHH #2A01 affinity maturation libraries was determined using CD28-Fc immobilized on a CM5 Series S sensor chip. Multi-cycle kinetics measurements were done using 5 step dilutions of the analytes (VHH clones) from 200 nM down to 12.5 nM. Kinetic parameters and affinity values were calculated using the 1:1 binding model in Biacore T 200 E valuation software 3.1 by introducing a double (blank channel and blank sample) subtraction.

[6] = target: T2, human CD28-Fc chimera (R&D, Cat. No. …); experiment: SPR (Biacore), CD28-Fc immobilized on CM5 chip, VHH as analyte, multi-cycle kinetics, 1:1 model

Molecule | kd (CD28-Fc; CD28-Fc) | ka (CD28-Fc) | Kd [6] | koff [6] | kon [6] | other results
CC#CCOc1ccc(S(=O)(=O)N2CCSC(C)(C)[C@@H]2C(=O)NO)cc1 [TMI, reference compound] |  |  |  |  |  | sCD28 levels / inhibition of sCD28 production [1]: greatly reduced sCD28 levels
Isotype hIgG4 (antibody) |  |  |  |  |  | MFI [2]: 71.9 MFI; MFI [3]: 116 MFI
2A1-Hinge: VHH 2A1 with human IgG1 hinge region downstream, dimeric, SEQ ID NO: 114 (protein, dimeric) EVQLVESGGGLVQAGESLRLSCAASGSIASINAMGWYRQAPGSQRELVAAISGGGDTYYADSVKGRFTISRDNAKTTVYLQMNSLRPEDTAVYYCVVDLYGSDYWDWGQGTQVTVSSDKTHTCPPCPAPEL |  |  |  |  |  | sCD28 levels / inhibition of sCD28 production [1]: did inhibit sCD28 production, but only at levels that were comparable to the 2A1 monomer; IL-2 secretion, antagonistic effect (isolated CD3 T cells): no effect on IL-2 secretion
VHH 2A1 (VHH, Monomeric llama VHH; also called VHH #2A01; monomeric 2A1) VHH: EVQLVESGGGLVQAGESLRLSCAASGSIASINAMGWYRQAPGSQRELVAAISGGGDTYYADSVKGRFTISRDNAKTTVYLQMNSLRPEDTAVYYCVVDLYGSDYWDWGQGTQVTVSS |  |  |  |  |  | EC50 (read off the curve) [4]: ~40 nM
VHH 6B10: affinity matured variant of VHH 2A1, SEQ ID NO: 28 (protein) VHH: EVQLVESGGGLVQAGESLRLSCAASGSIASINAMGWYRQAPGSQRELVAAISGGGDTYYADSVKGRFTISRDNAKTTVYLQMNSLRPEDTAVYYCVVDTHRGVYWYWGQGTQVTVSS |  |  |  |  |  | blocking of CD28 shedding compared to the parental VHH [1]: superior to the parental VHH; proinflammatory cytokine (IFN gamma) secretion in MLR, antagonistic effect [5]: robust antagonistic effect
VHH 11G11 (VHH) VHH: EVQLVESGGGLVQAGESLRLSCAASGSIASINTMAWYRQAPGSQRELVAAINSISRTYYADSVKGRFTISRDNAKTTVYLQMNSLRPEDTAVYYCVVDVTKEDYWYWGQGTQVTVSS | 5.77e-06 s⁻¹ | 47800 M⁻¹ s⁻¹ | 0.12 nM and 0.121 nM | 5.77e-06 s⁻¹ | 47800 M⁻¹ s⁻¹ | 
VHH 9B3 (VHH, also called 9B03) VHH: EVQLVESGGGLVQAGESLRLSCAASGSIASIRTMAWYRQAPGSQRELVAAISSGREVYYADSVKGRFTISRDNAKTTVYLQMNSLRPEDTAVYYCVVDMYWQDYWWWGQGTQVTVSS | 7.17e-08 s⁻¹ | 112000 M⁻¹ s⁻¹ | 0.000642 nM | 7.17e-08 s⁻¹ | 112000 M⁻¹ s⁻¹ | 
VHH 5A3 (VHH, also called 5A03) VHH: EVQLVESGGGLVQAGESLRLSCAASGSIASINSMGWYRQAPGSQRELVAAINEKLLIYYADSVKGRFTISRDNAKTTVYLQMNSLRPEDTAVYYCVVDLYGSDYWDWGQGTQVTVSS | 3.78e-05 s⁻¹ | 33800 M⁻¹ s⁻¹ | 1.12 nM | 3.78e-05 s⁻¹ | 33800 M⁻¹ s⁻¹ | blocking of CD28 shedding compared to the parental VHH [1]: superior to the parental VHH; proinflammatory cytokine (IFN gamma) secretion in MLR, antagonistic effect [5]: robust antagonistic effect
VHH 11E11 (VHH) VHH: EVQLVESGGGLVQAGESLRLSCAASGSIASINSMAWYRQAPGSQRELVAAISNAREVYYADSVKGRFTISRDNAKTTVYLQMNSLRPEDTAVYYCVVDVYFQEYWYWGQGTQVTVSS | 1.64e-05 s⁻¹ | 46600 M⁻¹ s⁻¹ | 0.352 nM | 1.64e-05 s⁻¹ | 46600 M⁻¹ s⁻¹ | 
VHH 9A7 (VHH, also called 9A07) VHH: EVQLVESGGGLVQAGESLRLSCAASGSIASINSMGWYRQAPGSQRELVAAISDRSEKYYADSVKGRFTISRDNAKTTVYLQMNSLRPEDTAVYYCVVDHHHSDWWTWGQGTQVTVSS | 9.78e-06 s⁻¹ | 51500 M⁻¹ s⁻¹ | 0.19 nM | 9.78e-06 s⁻¹ | 51500 M⁻¹ s⁻¹ | 
VHH 10E1 (VHH, also called 10E01) VHH: EVQLVESGGGLVQAGESLRLSCAASGSIASIKTMAWYRQAPGSQRELVAAINYIKEIYYADSVKGRFTISRDNAKTTVYLQMNSLRPEDTAVYYCVVDVTKEDYWYWGQGTQVTVSS | 2.84e-06 s⁻¹ | 44400 M⁻¹ s⁻¹ | 0.0639 nM | 2.84e-06 s⁻¹ | 44400 M⁻¹ s⁻¹ | 
VHH 12A09: affinity matured variant of VHH 2A1, SEQ ID NO: 32 (protein) VHH: EVQLVESGGGLVQAGESLRLSCAASGSIASIKTMAWYRQAPGSQRELVTAIASDNRKYYADSVKGRFTISRDNAKTTVYLQMNSLRPEDTAVYYCVVDVTKEDYWYWGQGTQVTVSS | 3.43e-07 s⁻¹ | 83400 M⁻¹ s⁻¹ |  |  |  | Kd (CD28-Fc; CD28-Fc): 0.0041 nM
